This passage reports binding result, IC50 and Kd results from patent US20120039810, “APTAMER-CONTAINING COMPOSITIONS AND METHODS FOR TARGETING E-SELECTIN” (published 2012).

Data set [1] deals with T1, L-selectin (Homo sapiens, UniProt P14151 P14151:39-332).
T1 sequence: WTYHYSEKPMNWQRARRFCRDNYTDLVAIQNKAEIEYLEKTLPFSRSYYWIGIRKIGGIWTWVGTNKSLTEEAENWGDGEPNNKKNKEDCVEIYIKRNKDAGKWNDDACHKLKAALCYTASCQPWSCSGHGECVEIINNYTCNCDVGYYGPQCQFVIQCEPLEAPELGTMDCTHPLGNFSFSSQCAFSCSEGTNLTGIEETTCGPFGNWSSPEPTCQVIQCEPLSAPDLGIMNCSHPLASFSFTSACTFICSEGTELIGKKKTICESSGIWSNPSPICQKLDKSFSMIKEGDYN
Briefly: EMSA; binding not detectable under the same conditions. The text has this:
Protein-bound TA and unbound TA were quantified using ImageJ software. The binding curves were generated assuming a single binding site curve fits using the Graph Pad Prism software.
To evaluate the binding affinity of ESTA-1 to all selectins, an electrophoretic mobility shift assay (EMSA) was utilized. To determine the binding constant, fixed amounts of ESTA-1 was mixed with increasing amounts of recombinant protein (E-, P-, and L-selectin). ESTA-1 (4.6 pmoles) and recombinant human selectin protein (up to 19 pmoles) were incubated and subjected to electrophoresis at 4° C. The gels were stained with SYBR Gold nucleic acid stain and densitometric analysis of the unbound ESTA-1 was plotted using E-selectin or P-selectin recombinant protein. […] As expected, the amounts of ESTA-1/E-selectin complexes reached saturation at a molar ratio of 1:1, when both of the binding molecules are at a concentration of 500 nM. Based on the densitometric analysis, the binding constant calculated for the ESTA-1 binding to E-selectin was 47 nM (FIG. 11A). […] ESTA-1 binding to L-selectin was not detectable under the same conditions. […] To further validate the binding affinity of ESTA-1 under biological conditions, different concentrations of ESTA-1 (50-200 nM) were incubated with ES-Endo cells induced with doxycycline. […] ESTA-1 binding was analyzed by fluorescent imaging.
For orientation: Mobility shift assays separate free from complexed probe on a gel.

Data set [2] addresses T2, E-selectin on ES-Endo cells (Tet-on HMVEC) (UniProt P16581 P16581:22-610).
T2 sequence: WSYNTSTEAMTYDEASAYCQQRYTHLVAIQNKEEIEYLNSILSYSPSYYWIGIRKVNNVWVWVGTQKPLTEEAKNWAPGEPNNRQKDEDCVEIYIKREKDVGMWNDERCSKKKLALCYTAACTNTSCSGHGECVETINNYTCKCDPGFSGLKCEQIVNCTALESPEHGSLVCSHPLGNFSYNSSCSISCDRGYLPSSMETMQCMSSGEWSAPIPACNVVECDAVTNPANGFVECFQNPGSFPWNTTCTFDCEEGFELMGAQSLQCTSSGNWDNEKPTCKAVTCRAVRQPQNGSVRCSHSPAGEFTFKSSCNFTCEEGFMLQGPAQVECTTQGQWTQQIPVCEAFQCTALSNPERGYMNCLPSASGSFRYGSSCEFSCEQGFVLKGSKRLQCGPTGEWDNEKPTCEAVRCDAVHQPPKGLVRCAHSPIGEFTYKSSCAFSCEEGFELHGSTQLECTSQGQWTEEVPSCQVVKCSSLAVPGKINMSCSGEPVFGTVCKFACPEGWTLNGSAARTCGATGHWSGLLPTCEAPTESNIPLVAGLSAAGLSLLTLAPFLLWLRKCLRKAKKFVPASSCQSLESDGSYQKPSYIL
Briefly: cell_activity; inhibition of HL-60 adhesion to ES-Endo, 4 C; 80% at 100 nM. As to the method:
On the basis of specific binding of ESTA-1 to E-selectin, a study was done to determine the effect of ESTA-1 on adhesion of sLe^X positive cells to endothelial cells. Confluent E-selectin expressing ES-Endo cells were incubated with doxycycline for 5 hours followed by ESTA-1 (50 nM, 100 nM) for 20 minutes. HL-60 cells a human promyelomonocytic cell line, or cells from two breast cancer cell lines (MDA-MB-231 and MDA-MB-468: 10^5 cells) suspended in RPMI containing 1% FBS were added to ES-Endo and incubated at 4° C. for 30 minutes with mild agitation. The unbound cells were washed off with RPMI containing 1% FBS. The number of cells that adhered to the ES-Endo was counted on at least 3 random areas using a light microscope (final magnification 100×) and expressed as the mean of triplicate experiments. […] HL-60 cell adhesion to ES-Endo increased by 5-fold when E-selectin expression was induced by doxycycline (FIG. 12A). Pretreatment of the E-selectin expressing ES-Endo with ESTA-1 inhibited HL-60 adhesion by 80% at 100 nM ESTA-1 (FIG. 12A). […] Lastly, we tested cytotoxicity associated with ESTA-1 treatment in ES-Endo cells. ES-Endo cells were first incubated with doxycycline for 5 hours and then with increasing concentration of ESTA-1 (up to 200 nM) for 48 hours. MTT assay was performed to test cell viability.

Data set [3] addresses P-selectin (Homo sapiens, UniProt P16109 P16109:42-771). In words: EMSA; estimated; PBS with Ca2+ and Mg2+, 5 mM MgCl2, 1% NP40. As to the method: Equal amounts of ESTA-1 (4.6 pmoles) were incubated with increasing concentrations of the recombinant selectin proteins (0-19 pmoles) in a total volume of 10.5 μl of PBS supplemented with Ca2+ and Mg2+, 5 mM MgCl2, and 1% NP40 at room temperature for 45 minutes. The reaction mixtures were loaded onto 6% polyacrylamide tris borate gels and run at 100 V for 90 minutes at 4° C. The gel was stained with SYBR Gold nucleic acid staining dye and visualized using the Fluor Chem 8800 chemimager (Alpha Innotech). Protein-bound TA and unbound TA were quantified using ImageJ software. The binding curves were generated assuming a single binding site curve fits using the Graph Pad Prism software.
To evaluate the binding affinity of ESTA-1 to all selectins, an electrophoretic mobility shift assay (EMSA) was utilized. To determine the binding constant, fixed amounts of ESTA-1 was mixed with increasing amounts of recombinant protein (E-, P-, and L-selectin). ESTA-1 (4.6 pmoles) and recombinant human selectin protein (up to 19 pmoles) were incubated and subjected to electrophoresis at 4° C. The gels were stained with SYBR Gold nucleic acid stain and densitometric analysis of the unbound ESTA-1 was plotted using E-selectin or P-selectin recombinant protein. […] Based on the densitometric analysis, the binding constant calculated for the ESTA-1 binding to E-selectin was 47 nM (FIG. 11A). […]

P-selectin, sequence (P16109 42-771, one chain of several): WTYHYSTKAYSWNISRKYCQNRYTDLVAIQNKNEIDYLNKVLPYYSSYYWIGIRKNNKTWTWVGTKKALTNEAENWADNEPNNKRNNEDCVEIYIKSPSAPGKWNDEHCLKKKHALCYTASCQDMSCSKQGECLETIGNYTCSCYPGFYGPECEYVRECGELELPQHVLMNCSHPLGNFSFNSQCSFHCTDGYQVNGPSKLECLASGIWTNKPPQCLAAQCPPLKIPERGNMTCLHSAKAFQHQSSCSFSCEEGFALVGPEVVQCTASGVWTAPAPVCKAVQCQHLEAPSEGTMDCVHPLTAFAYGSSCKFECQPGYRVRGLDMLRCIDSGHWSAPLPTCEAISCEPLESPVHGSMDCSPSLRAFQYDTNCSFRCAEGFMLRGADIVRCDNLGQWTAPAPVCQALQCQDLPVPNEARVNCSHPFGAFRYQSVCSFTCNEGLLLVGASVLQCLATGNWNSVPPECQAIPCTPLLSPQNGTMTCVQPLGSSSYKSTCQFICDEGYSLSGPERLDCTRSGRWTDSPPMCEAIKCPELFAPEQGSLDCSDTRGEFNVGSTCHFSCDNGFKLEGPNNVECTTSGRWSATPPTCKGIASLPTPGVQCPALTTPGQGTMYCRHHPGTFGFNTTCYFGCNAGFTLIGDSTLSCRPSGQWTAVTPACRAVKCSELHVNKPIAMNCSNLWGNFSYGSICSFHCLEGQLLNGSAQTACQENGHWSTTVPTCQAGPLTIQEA

B1: ESTA-1 (TA-1) (ssDNA)
DNA: CGCTCGGATCGATAAGCTTCGATCCCACTCTCCCGTTCACTTCTCCTCACGTCACGGATCCTCTAGAGCACTG
modifications: 5'-monothiophosphate (Rp) on all dA except in primer-binding region
As a reminder, the IC50 is the concentration that inhibits the measured activity by half. One may read the Kd as the free concentration of one partner at which half of the binding sites on the other are occupied at equilibrium, for simple one-to-one binding. For the molecule B1, the binding result in data set [1] is given as “no binding”. In addition, in data set [2], the IC50 is ~0.063 µM. For the same molecule, in data set [3], the Kd was ~13 µM.
